Results: patent publication US20220010003A1 (Boehringer Ingelheim, published 2022)
Changes are numbered by the printed parent chain.

Experiments:
Assay in all cases: ELISA on alanine variants of POSTN EMI-FAS4, second screen
[1] = biological target: T1, NB1202 (N276A) (human, UniProt Q15063 22-631, limits assumed)
T1 construct: also called POSTN EMI-FAS4 N276A
T1 sequence: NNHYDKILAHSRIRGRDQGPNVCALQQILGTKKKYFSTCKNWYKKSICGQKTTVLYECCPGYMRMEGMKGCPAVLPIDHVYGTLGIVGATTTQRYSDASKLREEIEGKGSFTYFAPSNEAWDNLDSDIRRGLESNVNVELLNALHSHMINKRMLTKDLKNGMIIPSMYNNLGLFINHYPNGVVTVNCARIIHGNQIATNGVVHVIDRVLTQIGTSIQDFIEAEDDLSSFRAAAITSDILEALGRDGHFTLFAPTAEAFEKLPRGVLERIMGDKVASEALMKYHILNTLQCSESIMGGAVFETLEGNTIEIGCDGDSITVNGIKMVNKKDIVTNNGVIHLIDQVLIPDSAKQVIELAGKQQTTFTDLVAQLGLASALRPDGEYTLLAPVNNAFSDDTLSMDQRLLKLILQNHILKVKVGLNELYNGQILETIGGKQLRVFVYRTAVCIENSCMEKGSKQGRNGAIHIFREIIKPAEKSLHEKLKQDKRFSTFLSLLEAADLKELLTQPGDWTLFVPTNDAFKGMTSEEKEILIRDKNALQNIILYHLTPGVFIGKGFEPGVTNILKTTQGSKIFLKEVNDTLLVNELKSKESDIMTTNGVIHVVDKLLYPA

[2] = biological target: T2, NB1248 (K302A) (human, UniProt Q15063 22-631, limits assumed)
T2 construct: also called POSTN EMI-FAS4 K302A
T2 sequence: T1 sequence with A255N, K281A

[3] = biological target: T3, NB1246 (V295A) (human, UniProt Q15063 22-631, limits assumed)
T3 construct: also called POSTN EMI-FAS4 V295A
T3 sequence: T1 sequence with A255N, V274A

[4] = biological target: T4, NB1243 (L287A) (human, UniProt Q15063 22-631, limits assumed)
T4 construct: also called POSTN EMI-FAS4 L287A
T4 sequence: T1 sequence with A255N, L266A

Measured: loss from the max signal

B1: NB0828 (antibody, V domains shown)
VH: QVQLVQSGAEVKKPGASVKVSCKASGYTFTSYGISWVRQAPGQGLEWMGWISAYNGNTNYAQKLQGRVTMTTDTSTSTAYMELRSLRSDDTAVYYCARDMLVVPFDYWGQGTLVTVSS
VL: QSVLTQSSSASGTPGQTVTVSCSGSSSDIGSNRVNWYQQLPGTAPKLLIYSNDQRPSGVPDRFSGSKSGTSASLAISGLQSADEADYYCAAWDDSLSTYVFGSGTKVTVL
> 50%: all assays above
